Test: yeast display, Sf9 membrane polyspecificity reagent, FACS + sequencing; frameworks hold sequencing errors
Outline: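 Galactose-induced (36–48 hours) yeast carrying a synthetic nanobody display library were exposed to 10% biotinylated, detergent-solubilized Sf9 membrane reagent at 4 °C for 1 hour. FACS followed streptavidin microbead enrichment, using low and high (top ~1%) gates for expression (anti-HA) and reagent binding (streptavidin). Colony PCR, MiSeq 2 × 250 sequencing and CDR-length filtering followed. Labels for polyreactivity reflect the gate of origin.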

Question: For “QVQIVESGGGLVQAGGSLRVSCAASGRTFSWYAMGWYRQARGKEWEIVAAIRWSGSSTYYADSVKGRFTISRDNAKNTVYLQMNSLKPEDTAVYYCAVAAGIPQRRYYYWGQGTQVTVSS”, which “polyreactivity (PSR sort gate)” value is on record?
Answer: high polyreactivity

Question: Which “polyreactivity (PSR sort gate)” value does the source give for “QVQIVESGGGLVQAGGSLRVSCAPSGNISYSYDMGWYRQAPGKERELVASITESGGSTYYADSVKGRFTISRDNAKNTVYFQMNILKPEDTAVYYCYWGHGTQVTVSS” here?
Answer: low polyreactivity

Question: For “QVQIVESGGGLVQAGGSLSLICAASGFIIDDNTMGWYRQAPGKERELVAAISYSAGSTYYADSVKGRFTISRDNAKNTVFLQMISVKTEDTAVYYCAAQHYWVTSYLSSYDYWGQGTQVTVSS”, which “polyreactivity (PSR sort gate)” value is on record?
Answer: low polyreactivity

Question: For “QVQIVESGGGLVQAGGSLSLSCAASGRTFVLYVMGWYRQAPWKEREFVADINAGGGSTYYADSVKGRFTISRDNAKNTVYLQMNSLKPEDTAVYYCAATRDLGQLFRFGYWGQGTQVTVSS”, which “polyreactivity (PSR sort gate)” value is on record?
Answer: low polyreactivity

Question: With “QVQIVESGGGLVQARCSLRLSFSASGYTFNNYAKGWYRQAPGTERELVAAISSSGGSTYFADSVKGRFTISRDNAKNTVYVQMNSLKPEDTAVYYCAARPFGLGDYRGYYYWGQGTQVTVSS” as the sequence, how does the “polyreactivity (PSR sort gate)” value read?
Answer: low polyreactivity

Question: Which “polyreactivity (PSR sort gate)” value does the source give for “QVQIVESGGGLVQEGGSLRLRCAASGFTFGYYRMGWYRQAPGKERELVAAISRSAGSTYYADSVKGRFTISRDNAKNTVYLQMNSLKPEDTAVYYCNAAVFRTEGGYSTFNYWGQGSQVTVSS” here?
Answer: high polyreactivity

Question: For “QVQIVESGGGVVQAGGILRLSCAASGYTFTVYGMGWYRQAPGKERELVARITWSGGTTRYADSVKGRFTISRDNAKNNVYLQMNSLKPEDTAVYYCAASYWRPKRYRYDYWGQGTQVTVSS”, which “polyreactivity (PSR sort gate)” value is on record?
Answer: high polyreactivity

Question: With “QVQIVESGGRLVQAGCSLRLSCAASGSTFKINAMGWYRQAPGKEWELVAVIRSRGTSTYYADSVKGRFTISRDNSKNTVYLQMNSLKPVDTAVYNCAAGRINGGDYWGQGTQVTVSS” as the sequence, how does the “polyreactivity (PSR sort gate)” value read?
Answer: high polyreactivity

Question: With “QVQIVESGGVIVQAGGSLRLSCAASGRIISYYTMGWYRQAPGKERELVAAISVSSGRTYYADSVKGRFTISRDNAKNTVYLQMNSLKPEDTAVYYCDAKYLARSAYDYWGQGTQVTVSS” as the sequence, how does the “polyreactivity (PSR sort gate)” value read?
Answer: high polyreactivity

Question: With “QVQIVESGPGLVQAGASLSLSCAASGSIFRPYAMGWYIQAPGKDRELVAAITWSGGRTYYADSVKGRFTISRDNAKNTVYLKMNSLKREDTAVYYCAADDSEGFDYWGQGNQVTVSS” as the sequence, how does the “polyreactivity (PSR sort gate)” value read?
Answer: high polyreactivity

Question: For “QVQIVESGRGLVQAGGSLRLSCAPSGFTLGFFAMGWYRQAPGKERELVAAINWRGGSTYYADSVKVRFTISRDNAKNTVYLQMNSLKPEDTAVYYCNRVYRPSRYDYWGQGTQVTVSS”, which “polyreactivity (PSR sort gate)” value is on record?
Answer: high polyreactivity

Question: Which “polyreactivity (PSR sort gate)” value does the source give for “QVQIVESGVGLVQAGGSLRLSCAASGTIFARYAMGWYRQAPGKERELVAAISWRGGRTYYADSVKGRFTISRDNAKNTVYLQMNSLKPEVTAVYYCAARRQQRGANGGDYWGQGTQVTLSS” here?
Answer: high polyreactivity

Question: With “QVQIVESWGCLVQAGGSLRLSCAASVNIFNVNAMGWSRQAPRKEREFLAAITSGANSYYADSEKGRFTISRDNAKNSVFLQMNSLKPEDTAVYYCAAEDGSYYRRNRFYYWGQGTQVTVSS” as the sequence, how does the “polyreactivity (PSR sort gate)” value read?
Answer: high polyreactivity

Question: For “QVQIVKSGGGLVQAGGSLRLSCAASGFIIPEYTMGWYRQAPGKERELVAAISGSGGSTYYADSVKGRFTISRDNAKNTVYLQMNSLIPEDTAVYYCIAPVYTADGYRYGSVRFGYWGQGTQVTVSS”, which “polyreactivity (PSR sort gate)” value is on record?
Answer: low polyreactivity

Question: With “QVQLAESGGCLVQAGGRLRLSCAASGSTFPHYAMGWYRQAPGKERELVAAISVRGGRTYYADSVKGRFTISRDNAKNNDSLQMNSLKPEDTAVYYCNKYYDVTKYGYWGQGTQVTVSS” as the sequence, how does the “polyreactivity (PSR sort gate)” value read?
Answer: high polyreactivity

Question: With “QVQLAESGGGLVQAGGSLRLSCAASGIIFYFYAMGWYRQAPGKERELVAAINSSSGRTYYADSVKGRFTISRDNAKNSVYLQMNSLKPEDTAVYYCAAYYYGSYDGTPYDYWGQGTQVTVSS” as the sequence, how does the “polyreactivity (PSR sort gate)” value read?
Answer: low polyreactivity

Question: With “QVQLAESGGGLVQAGGSLRLSCAASGIIFYFYAMGWYRQAPGKERELVAAISGTGGRTYYADSVKGRFTISRDNAKNTVYLQMNSLKPEDTAVYYCNADDTPVPSIRFDYWGQGTQVTVSS” as the sequence, how does the “polyreactivity (PSR sort gate)” value read?
Answer: low polyreactivity

Question: With “QVQLAESGGGLVQAGGSLRLSCAASGSTFVAYAMGWYRQAPGKERELVAAITRSGGSTYYADSVKGRFTISRDNAKNTVYLQMNSLKPEDTAVYYCAARHYRSRDGYWGQGTQVTVSS” as the sequence, how does the “polyreactivity (PSR sort gate)” value read?
Answer: high polyreactivity

Question: Which “polyreactivity (PSR sort gate)” value does the source give for “QVQLEDSGGGLDQAGVSLRLSCAASGSTFLLYAMVGYRQAPGKERELVAAISRSSTSTYYADSVKGRFTISRDNAKNTVYLQMNSLKPEDTAVYYCAAVVTVQYSQPYDHWGQGTQVTVSS” here?
Answer: high polyreactivity

Question: Which “polyreactivity (PSR sort gate)” value does the source give for “QVQLEDSGGGLVQAGGSLRLSCAASGFIFGSYTMGWYRQAPGKERELVAVITWSGSSTYYADSVKGRFTISRDNAKYPVYLQMNSLKPEDTAVYYCNAVKFGGYDYWGQGTQVTVSS” here?
Answer: high polyreactivity

Question: Which “polyreactivity (PSR sort gate)” value does the source give for “QVQLEDSGGGLVQAGGSLRLSCAASGFTFYSYAMGWYRQATGKERELVAAISWSGTRTYYADSVKGRFTISRDNAKNTVYLQMNSLKPEDTAVYYCAARGYRYGYGYWGQGTQVTVSS” here?
Answer: high polyreactivity

Question: For “QVQLEDSGGGLVQAGGSLRLSCAASGLIFLDYAMGCYRQAPGKERELVAAISRSGGRTYYADSVKGRFTISRDNAKNTVYLQMNIVKPEDTAVYYCNAYQSARKKATASTYDSWGQCTQVTVSS”, which “polyreactivity (PSR sort gate)” value is on record?
Answer: high polyreactivity

Question: For “QVQLEDSGGGLVQAGGSLRLSCAASGRTFNKYAMGWYRQAPGKERELVAAINTSGGSTYYADSVKGRFTISRDNAKNTVYLQMNSLKPEDTAVYYCAAQSRSVYGRSYGYWGQGTQVTVSS”, which “polyreactivity (PSR sort gate)” value is on record?
Answer: high polyreactivity

Question: For “QVQLEDSGGGLVQAGGSLRLSCAASGRTFTYYAMGWYRQAPGKERELVATISYSGGSTYYADSVKGRFTISRDNAKNTVYLQMNSLKPEDTAVYYCATSGSGPWWKLYYSGQGTQVTVSS”, which “polyreactivity (PSR sort gate)” value is on record?
Answer: low polyreactivity

Question: Which “polyreactivity (PSR sort gate)” value does the source give for “QVQLEDSGGGLVQAGGSLRLSCAASGSIIGSYAMGLYRQAPGKERELVAAISRRGGSTYYADSVKGRFTISRDNAKNTVYLQMNSLKPEDTAVYYCARRDYGVLNKGLGQEGDYWGQGTQVTVSS” here?
Answer: low polyreactivity

Question: Which “polyreactivity (PSR sort gate)” value does the source give for “QVQLEDSGGVLVQAGGSLRLSCAASGFIYRFYPMGWYRKAPGKERELVAGISSSGGSTYYADSVKGRFTISRDYAKNTVYLQMNSLKPEDTAVFYCNAKRSDQSYKTFNYWGQGTQVTVSS” here?
Answer: low polyreactivity

Question: With “QVQLEESAGGLVQAGGSLRLSCAASGIIFSGNAMGWYRQATGKERELVAAITLSGGSTYYADSVKGRFTISRDNAKNTVYLQMNSLKPEDTAVYYCNAVYDTIYSLRDIDTEYGSWGQGTQVTVSS” as the sequence, how does the “polyreactivity (PSR sort gate)” value read?
Answer: low polyreactivity

Question: Which “polyreactivity (PSR sort gate)” value does the source give for “QVQLEESAGGLVQAGGSLRLSCAASGRIFVRNAMGWYRQAPGKERELVADITNGGSTNYADSVKGRFTISRDNAKNTVYLQMNSLKPEDTAVYYCAATYPYSWVYSGYYYWGHGTQVTVSS” here?
Answer: low polyreactivity

Question: Which “polyreactivity (PSR sort gate)” value does the source give for “QVQLEESAGGLVQAGGSLRLSCAASGYTFGRYAMGWYRQEPGKERELVAVITTGDSTYYADSVKGRFTISRDNAKNTVNLLMNSLKPEDTAVYYCAADGRLSRPFDYWGQGTQVTVSS” here?
Answer: low polyreactivity

Question: With “QVQLEESCGGLVQAGGSLRLSCAASGRTFRYYPMGWYRQAPGKERELVAAITTGSSTYYADSVKGRFTISRDNANNTVYLQMNSLKPEDTAVFYCNVFQGTRYGYWGQGTQVTVSS” as the sequence, how does the “polyreactivity (PSR sort gate)” value read?
Answer: low polyreactivity

Question: For “QVQLEESGAGLVQAGGSLRLSCAASGSIFVRNAMAWYRHAPGKERELVAVITRSAGRTYYADSVKGRFTISRDNAKNTVYLQMNSLKPEDTAVYYCAASPSTPNKYGSWGQGTQVTVSS”, which “polyreactivity (PSR sort gate)” value is on record?
Answer: high polyreactivity

Question: Which “polyreactivity (PSR sort gate)” value does the source give for “QVQLEESGGCIVQAGGSHRLSCAASGRTFTLNAMGWYRQAPGKEREFVAAISNSGVRTYYADSVKGRFTISRDNAKNTVFLQMNSLKPEDTGVYYCARTYQVGDSIDDYWGQGTQVNVSS” here?
Answer: low polyreactivity

Question: With “QVQLEESGGCLVQAGGSLRLRCAASGRIVALNAMGWYRQAPGKERELVATIRCRGGATYYADSVKGRFTISRDNAKNTVYLQMNSLKPEDNAVYYCDAFTGNRRTYDYWGQGTQVTVSS” as the sequence, how does the “polyreactivity (PSR sort gate)” value read?
Answer: high polyreactivity

Question: Which “polyreactivity (PSR sort gate)” value does the source give for “QVQLEESGGCLVQAGGSLRLSCAASGITFYGNVMGWYRQAPGKERELVAAISWSGGRTYYADSVKGRFTISRDNAKNTVSVQMNSLKPEDTAVDFCAAEGTTNRGVYASYDYWGQGTQVTVSS” here?
Answer: low polyreactivity

Question: For “QVQLEESGGGIVQAGGSLRLSCAASGRIFPYYAMGWYRQAPGKERALVAVISYSSGITYADSVKGRFTISRDNAKNTVYLQMNSLKPEDTAVYYCAADKWAFGATQYDYWGKGTQVTVSS”, which “polyreactivity (PSR sort gate)” value is on record?
Answer: low polyreactivity

Question: Which “polyreactivity (PSR sort gate)” value does the source give for “QVQLEESGGGLFQAGGSLRLSCAASGRTFRLYDMGWYRQAPGKERELVAAISKSGGSTYYADSVKGRFTISRDYAKNPVYVQMNSLKPEDTAVYYCAAGTRVCEYDYWGQGTQVTVSS” here?
Answer: high polyreactivity

Question: With “QVQLEESGGGLFQAGGSLRLSCAASGSTITRYAMGCYRQAPGKEREIVAVISRSGGSTYYADSVKGLFTISRDNAKNTVYLQINSLKPEDTAVYYCAAKYYGGRRSPYSYGYWGQGTQVTVSS” as the sequence, how does the “polyreactivity (PSR sort gate)” value read?
Answer: high polyreactivity

Question: With “QVQLEESGGGLLQAGGSLRLSCAATGSTFVTYAMGWYRQAPGKERELVAAISSGGGNTYYADSVKGRFTISRDNAMNSVYLQMHSLKPEDTAVYLCAADNPRSEYDYWGQGTQVTVSA” as the sequence, how does the “polyreactivity (PSR sort gate)” value read?
Answer: high polyreactivity

Question: Which “polyreactivity (PSR sort gate)” value does the source give for “QVQLEESGGGLLQAGGSLRLTCAASGFTFYYYAMGWYRLATGKERYLVAAISGGGGSTYYADSVKGRFTISRDNAKNTVYLPMNSMKPEDTAVYYCAAVGSWRYNYDYDYWGQGSQVTVSS” here?
Answer: high polyreactivity

Question: With “QVQLEESGGGLVHAGGSLRLICAASGSTFSTYAMRWYRQAPGKERELVARITRGGSTNYADSVKGRFTISRDNAMNTVYLQMNCLKPDDTAVYYFSAGIRSGRKYDYWGQGTQVTVSS” as the sequence, how does the “polyreactivity (PSR sort gate)” value read?
Answer: low polyreactivity

Question: With “QVQLEESGGGLVKAGGSLRLSSAASGITIGIYLIGWYRQAPGTESEFVATISRSDDNTYYADSVMGRFTISRDNAKNTVYLQMNSLKPEDSAVYYCPADGVISAWYSSRDDYWGKGTQVTVSS” as the sequence, how does the “polyreactivity (PSR sort gate)” value read?
Answer: low polyreactivity

Question: Which “polyreactivity (PSR sort gate)” value does the source give for “QVQLEESGGGLVQAAGRLRVSCAASGYIYGYAMGWYKQAPAKEMELVAAITRGGGRTYYADSVKGRFTISRDNAKNTVYFQMHSLKPVDTAVYYCAVAANRGKGFYEYYHWGQGTQVTVSS” here?
Answer: high polyreactivity

Question: For “QVQLEESGGGLVQAAGSLRLRCAASGSTLTFNAMGWYRHAPGKERELVAAISWSDTDTYYADSVKGRFTISRDNAKNTVYLQMNSLKPEDTAVYYCASTLSAYEMDYWGQGTQVTVSS”, which “polyreactivity (PSR sort gate)” value is on record?
Answer: low polyreactivity

Reference: the nanobody polyreactivity screen of Harvey et al. (2022)
